Patent publication US20230112794A1 (NATIONAL TAIWAN UNIVERSITY, published 2023)

How the values were obtained:
recombinant human IL-6 [1] = target: T1, recombinant human IL-6 (human, UniProt P05231 30-212); assay: indirect ELISA, IL-6 coated at 20 ng/well, four-parameter fit; coated IL-6
T1 construct: Bought protein (R&D systems); also called Interleukin-6
Description: (§1) FIG. 4 illustrates the binding characteristics of purified C14mab. (a) The microplates were coated with human IL-6 (20 ng/well), HyIL-6 (60 ng/well), and IL-6 Ra (40 ng/well). Serial dilutions of C14mab were added for 1 hr at room temperature. The binding ELISA data is graphed with OD₄₅₀ readings and their associated binding percentages vs. log antibody concentration. Data are compiled from three independent experiments. Values represent the mean±SEM. (b) Data were normalized to maximum signal for IL-6 and HyIL-6 individually. EC₅₀ values were obtained by nonlinear regression fitting to a variable slope, four-parameter dose-response model using the GraphPad Prism software (San Diego, Calif., USA). (c) The binding of mouse HyIL-6 (60 ng/well) with C14mab was measured by ELISA as described in (a). Values represent the mean±SEM from three independent experiments.

[2] = target: T2, recombinant human Hyper-IL-6 (HyIL-6), fusion of human sIL-6Rα and human IL-6 (human); assay: BLI (Octet), C14mab on anti-mouse Fc capture sensor, HyIL-6 1.56-25 nM, 1:1 global fit
T2 construct: also called human IL-6Rα/IL-6 chimera; fusion protein of sIL-6Rα/IL-6
Description: (§2) FIG. 5 illustrates the binding kinetics of C14mab. Biolayer interferometry analysis of the binding of C14mab to IL-6 (a) and HyIL-6 (b) was carried out. […] Kinetic parameters were evaluated by using a 1:1 binding model with global fitting. The experimental curves of each concentration (solid line) are shown alongside the fitted curves (dashedline). One representative set of curves is shown from three independent experiments.
(§3) Octet is based on Bio-Layer Interferometry (BLI) for measuring protein-protein interactions. BLI analyzes the interference pattern of white light reflected from two surfaces: a layer of immobilized protein on the biosensor tip and an internal reference layer. The binding between C14mab immobilized on the biosensor tip surface using Biosensor AMC tips (ForteBio, Pall Corporation) and IL-6 (R&D systems) and HyIL-6 (R&D systems) in complex was measured. Interference patterns for the binding to or dissociating from the biosensor were measured in real time to generate a response profile on the Octet® System Octet 96 Red (ForteBio, Pall Corporation). Kinetic parameters were evaluated by using a 1:1 binding model with global fitting of three independent experiments with the Octet Red analysis software.

[3] = target: T3, IL-6/IL-6Rα complex (IL-6 bound to sIL-6Rα, not fused) (human, UniProt P08887 20-358; P05231 30-212); assay: ELISA, coated sIL-6Rα (50 ng/well), IL-6 (10 ng/well) added, C14mab added without washing off unbound IL-6 [b]
T3 construct: Non-covalent complex; also called IL-6/sIL-6Rα combination; IL-6/sIL-6R combination
Description: FIG. 8 illustrates the epitope of HyIL-6/C14mab interaction. (a) Differential HDX of HyIL-6 upon C14mab binding. […] (b) A scheme depicts the assay procedure (left panel). The microplates were coated with sIL-6 Rα (50 ng/well) in PBS buffer at 4° C. overnight and blocked with 1% BSA in PBS for 1 hr. Then plates were washed with PBS containing 0.05% Tween-20. Upper; without washing group, IL-6 (10 ng/well) was added for 1 hr at room temperature. Then serial dilution concentrations of C14mab were added directly for another 2 hrs. Lower; washing group, IL-6 (10 ng/well) was added for 1 hr at room temperature. After plates were washed with PBS containing 0.05% Tween-20, serial dilution concentrations of C14mab were added directly for another 1 hr. The bound C14mab was determined by ELISA. The binding results with or without washing before C14mab incubation are shown in blue and red, respectively (right panel). One representative assay of 3 is shown.
To further understand the C14mab binding mechanism in HyIL-6, we performed an indirect ELISA assay using C14mab as a detection antibody. Briefly, IL-6Rα was immobilized directly on the plate and then IL-6 was added to the IL-6Rα and allowed to bind. The unbound IL-6 was washed away and the IL-6/IL-6Rα complex was detected by C14mab (FIG. 8(b)).

[4] = target: T2, recombinant human Hyper-IL-6 (HyIL-6), …; assay: indirect ELISA, HyIL-6 coated at 60 ng/well, four-parameter fit; coated human HyIL-6
Description: as §1

recombinant human IL-6 [5] = target: T1, recombinant human IL-6; assay: BLI (Octet), C14mab on anti-mouse Fc capture sensor, IL-6 1.56-25 nM, 1:1 global fit
Description: as §2, §3

[6] = target: T4, mouse HyIL-6 (mouse IL-6/IL-6Rα complex, R&D systems) (mouse, UniProt P22272 20-357; P08505 25-211, limits assumed); assay: ELISA, coated mouse HyIL-6 (60 ng/well), serial dilution of purified C14mab [c]
T4 construct: not shown: linker, if any, is not described for the bought mouse protein
T4 sequence (chain (part 1 of 2), looked up): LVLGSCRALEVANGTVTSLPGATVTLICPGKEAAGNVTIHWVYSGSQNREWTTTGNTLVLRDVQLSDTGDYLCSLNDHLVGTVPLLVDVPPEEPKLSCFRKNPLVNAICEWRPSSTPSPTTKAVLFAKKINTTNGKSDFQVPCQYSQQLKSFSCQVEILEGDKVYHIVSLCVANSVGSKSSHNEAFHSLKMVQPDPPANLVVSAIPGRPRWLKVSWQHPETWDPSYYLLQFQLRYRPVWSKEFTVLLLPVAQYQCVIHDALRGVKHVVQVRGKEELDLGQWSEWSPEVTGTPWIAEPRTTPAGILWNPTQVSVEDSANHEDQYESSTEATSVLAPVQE
T4 sequence (chain (part 2 of 2), looked up): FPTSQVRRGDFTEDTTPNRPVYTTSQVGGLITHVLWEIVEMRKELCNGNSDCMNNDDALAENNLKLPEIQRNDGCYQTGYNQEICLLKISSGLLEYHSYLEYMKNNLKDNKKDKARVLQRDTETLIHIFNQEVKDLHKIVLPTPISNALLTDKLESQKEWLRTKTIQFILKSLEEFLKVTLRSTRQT
Description: as §1

[7] = target: T2, recombinant human Hyper-IL-6 (HyIL-6), …; assay: BLI (Octet), KD on HyIL-6 against KD on IL-6
Description: as §2, §3

[8] = target: T2, recombinant human Hyper-IL-6 (HyIL-6), …; assay: indirect ELISA, EC50 on HyIL-6 against EC50 on IL-6
Description: as §1

[9] = target: T5, IL-6Rα (soluble IL-6 receptor alpha, R&D systems) (human, UniProt P08887 20-358); assay: ELISA, coated IL-6Rα (40 ng/well), serial dilution of purified C14mab [a]
T5 construct: also called IL-6 Ra; sIL-6Rα
T5 sequence (looked up): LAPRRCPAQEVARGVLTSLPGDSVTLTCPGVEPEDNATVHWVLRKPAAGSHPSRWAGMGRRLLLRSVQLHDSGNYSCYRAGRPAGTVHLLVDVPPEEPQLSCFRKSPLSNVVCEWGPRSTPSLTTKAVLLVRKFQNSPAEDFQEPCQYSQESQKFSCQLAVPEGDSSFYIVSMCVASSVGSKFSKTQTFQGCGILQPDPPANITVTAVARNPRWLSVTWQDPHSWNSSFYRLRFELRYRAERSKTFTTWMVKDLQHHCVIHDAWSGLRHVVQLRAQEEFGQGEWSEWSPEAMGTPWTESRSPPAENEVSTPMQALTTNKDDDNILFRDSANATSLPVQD
Description: as §1

- EC50 (recombinant human IL-6 [1]): 0.0153 µg/mL
- Kd [2]: 286 pM
- koff [2]: 0.000144 s⁻¹
- kon [2]: 498000 M⁻¹ s⁻¹
- EC50 (read off the curve) [3]: ~0.6 µg/mL
- EC50 [4]: 0.0043 µg/mL
- Kd (recombinant human IL-6 [5]): 1130 pM
- koff (recombinant human IL-6 [5]): 0.000665 s⁻¹
- kon (recombinant human IL-6 [5]): 605000 M⁻¹ s⁻¹
- binding result [6]: no binding (tested: 10 µg/ml)
- fold binding strength against IL-6 [7]: ~4 times
- fold stronger EC50 than for IL-6 [8]: ~3.5 times
- binding result [9]: no binding (tested: 10 µg/ml)
B1: C14 monoclonal antibody (C14mab) (antibody, IgG1, V domains shown)
VH: EVNLEESGGGLVQPGGSMQLSCAASGFTFSDAWMDWVRQSPEKGLEWVAEVRTKGYYPVTFYAESVKGRFTISRDDSKSSVYLQMNSLRAEDTGIYYCTRPHYGYGYFDVWGAGTTVTVSS
VL: not shown
notes: Early experiments used the C14 hybridoma culture supernatant; also called C14 clone
